What was measured:
WT = WT (UniProt O00255); assay: fluorescence polarization competition
M327I = M327I (UniProt O00255); assay: fluorescence polarization competition
T349M = T349M (UniProt O00255); assay: fluorescence polarization competition
[1] = biological target: StrepII-Avi-TEV-Menin (wild-type human Menin, recombinant, E. coli) (UniProt O00255); assay: fluorescence polarization
[2] = biological target: StrepII-Avi-TEV-Menin T349M (recombinant mutant human Menin) (UniProt O00255); assay: fluorescence polarization
[3] = biological target: StrepII-Avi-TEV-Menin M327I (recombinant mutant human Menin) (UniProt O00255); assay: fluorescence polarization

IC50 (WT) | Ki (WT) | IC50 (M327I) | Ki (M327I) | IC50 (T349M) | Ki (T349M) | Kd [1] | Kd [2] | Kd [3] | Substance
26.1 nM | 9.17 nM | 20.3 nM | 7.78 nM | 101 nM | 51.4 nM | – | – | – | MLL1 Peptide
– | – | – | – | – | – | 1.78 nM | 3.7 nM | 2.56 nM | N-terminally FITC-labelled MLL2(15-48) peptide

— US20260185163A1, “MEN1 MUTATIONS AND USES THEREOF” (DANA-FARBER CANCER INSTITUTE, INC., priority 2022, published 2026)
